{"source": "patent US7807620", "about": "(TRUSTEES OF COLUMBIA UNIVERSITY IN THE CITY OF NEW YORK, dated 2010)", "binders": {"B1": {"name": "β-hFSH-CTP-α-hFSH (ligand)", "chain": "not shown", "notes": "Secreted from CHO-K1 cells and purified on an A201 column; also called β-hFSH-CTP-α analogue; β-hFSH-CTP-α fusion protein"}}, "biological_target": "T1, recombinant native hFSH receptor (human, UniProt P23945 18-695)", "T1 construct": "whole, on cells", "T1 sequence (looked up)": "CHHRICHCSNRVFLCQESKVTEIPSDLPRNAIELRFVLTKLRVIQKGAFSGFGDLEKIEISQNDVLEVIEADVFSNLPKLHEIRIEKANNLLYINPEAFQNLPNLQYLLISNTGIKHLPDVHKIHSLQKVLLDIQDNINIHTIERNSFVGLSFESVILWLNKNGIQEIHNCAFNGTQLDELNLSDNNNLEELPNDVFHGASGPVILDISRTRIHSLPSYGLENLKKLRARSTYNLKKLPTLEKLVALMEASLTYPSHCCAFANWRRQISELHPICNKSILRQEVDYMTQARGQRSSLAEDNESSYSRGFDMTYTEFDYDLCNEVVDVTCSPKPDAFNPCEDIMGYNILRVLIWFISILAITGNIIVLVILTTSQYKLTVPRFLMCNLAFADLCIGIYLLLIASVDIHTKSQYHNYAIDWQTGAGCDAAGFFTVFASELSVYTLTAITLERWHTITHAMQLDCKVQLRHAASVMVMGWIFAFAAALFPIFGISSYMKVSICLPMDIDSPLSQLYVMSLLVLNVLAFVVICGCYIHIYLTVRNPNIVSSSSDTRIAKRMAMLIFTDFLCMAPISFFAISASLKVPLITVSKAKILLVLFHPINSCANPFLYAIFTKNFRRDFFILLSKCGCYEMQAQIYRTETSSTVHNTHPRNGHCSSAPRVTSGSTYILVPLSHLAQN", "assay": "conclusion drawn from the cAMP bioassay on Y-1 cells expressing the FSH receptor; no direct binding assay described", "description": "Bioactivity of the hFSH analogues was evaluated using Y-1 cells transfected with the FSH receptor. Y-1 cell cultures were mixed with the fusion protein and native pituitary hFSH (control) at varying concentrations and media was assayed for cAMP activity as described in Bouloux et al, 2001.\nFigure 8: FIG. 8: In vitro bioassay of hormone activity. cAMP concentration (fmol/ml) was quantitated in Y1 cells expressing the FSH receptor after treatment with the indicated amount of either pituitary FSH (PFSH) or the FSH analogue, β-hFSH-CTP-α-hFSH (rFSH-CTP).\nThe bioactivity of the β-hFSH-CTP-α analogue was first assessed by an assay of hFSH receptor activity. In this assay, a recombinant native hFSH receptor is expressed in a suitable host cell and cAMP induction is measured following incubation with hormone (Lindau-Shepard et al, 2001)."}
{"binder": "B1", "values": [{"measurement": "binding result", "value": "binds"}]}
